# Reference: article PMC7822592, “The half-life of the bone-derived hormone osteocalcin is regulated through O-glycosylation in mice, but not in humans” (eLife, 2020)
# No end group written: not given here.
# Legend:
# INS-1 832/3 cells [1] = experiment: Ins1 gene expression in INS-1 832/3 cells treated with ucOCN; format: cell-based, rat; conditions: 8 hr; for Ins1 gene expression (Fold change relative to vehicle): 0.3 ng/mL, qPCR
# Procedure: (§1) The INS-1 832/3 rat insulinoma cell line (Millipore-Sigma) was cultured in RPMI-1640 with 11.1 mM D-glucose, supplemented with 2 mM L-glutamine, 1 mM sodium pyruvate, 10 mM HEPES, 0.05 mM β-mercaptoethanol and 10% FBS ([Hohmeier et al., 2000]). On day 1, cells were plated at 3 × 10^5 cells per well in 12-well plates and on day 5, cells were washed with PBS and incubated with culture media containing 5 mM D-glucose. Twenty-four hours later, cells were washed with PBS and incubated for 4 hr in culture media containing 1% FBS, 5 mM D-glucose and 0.1% BSA. OCN was added for 8 hr before supernatants and cells were harvested. ucOCN and O-gly ucOCN concentration were measured in supernatants by ELISA and cells were lyzed and RNA extracted as described in the material and methods section. Gene expression was analyzed using rat specific primers for Ins1 and Gapdh.
# [2] = Ex vivo half-life of mouse OCN in plasma; format: in vitro ADME; conditions: 100 ng/ml
# Procedure: The mouse OCN ex vivo half-life assays were performed with fresh plasma (lithium heparin) collected from four independent Bglap-/- mice. Glycosylated OCN produced in HEK293 cells and non-glycosylated OCN, produced in bacteria as previously described ([Ferron et al., 2012]), were incubated at 100 ng/ml in plasma at 37°C and OCN level was measured at indicated time points using the total mouse OCN ELISA assay described previously ([Ferron et al., 2010b]). […] The detection antibody is a goat polyclonal antibody directed against the C-terminal region (amino acids 26 to 46) of mouse OCN (anti-CTERM OCN). This assay detects with the same sensitivity glycosylated and non-glycosylated mouse OCN at concentration of 50 ng/ml or less (Figure 3—figure supplement 2). Therefore, all samples were diluted to be in this range before being measured by the ELISA. Human OCN half-life assay was performed ex vivo using Bglap-/- mice plasma and human OCN at 60 ng/ml. Human OCN level was measured at different time point using the human ucOCN ELISA described above. At the experiment start point (T0), an aliquot of plasma was diluted in ELISA assay buffer and kept on ice for OCN measurements. In some experiments, plasma was heat-inactivated for 30 min at 56°C, or treated with EDTA (10 mM, Wisent), phenylmethylsulfonyl fluoride (PMSF, 10 mM, Sigma), pepstatin A (Pep A, 10 μM, Sigma) which inhibits aspartic proteases (pepsin, cathepsin D, renin, chymosin), RVKR (Dec-RVKR-CMK, 50 μM; Tocris) or talabostat (10 mM; Tocris). Results are calculated in percentage relative to the initial concentration of non-glycosylated and glycosylated OCN respectively.
# INS-1 832/3 cells [3] = experiment: OCN stability in INS-1 832/3 cell culture media; format: in vitro ADME, rat; conditions: 8 hours at 4°C without cells, ELISA
# INS-1 832/3 cells [4] = experiment: OCN stability in INS-1 832/3 cell culture media; format: in vitro ADME, rat; conditions: 8 hours with INS-1 cells at 37°C, ELISA
# Procedure: as §1
substance,measurement,setting,value
"ucOCN: Non-glycosylated uncarboxylated mouse osteocalcin produced in bacteria (YLGASVPSPDPLEPTREQCELNPACDELSDQYGLKTAYKRIYGITI; ends and bridges not checked; cysteine pairing not given here; UniProt P86546 50-95, looked up)",Ins1 gene expression (Fold change relative to vehicle),INS-1 832/3 cells [1]; replicate 1,0.663 Fold change
same,Ins1 gene expression (Fold change relative to vehicle),INS-1 832/3 cells [1]; replicate 2,1.9 Fold change
same,Ins1 gene expression (Fold change relative to vehicle),INS-1 832/3 cells [1]; replicate 3,0.6 Fold change
same,Ins1 gene expression (Fold change relative to vehicle),INS-1 832/3 cells [1]; replicate 4,1.4 Fold change
same,Ins1 gene expression (Fold change relative to vehicle),INS-1 832/3 cells [1]; replicate 5,0.337 Fold change
same,Ins1 gene expression (Fold change relative to vehicle),INS-1 832/3 cells [1]; replicate 6,0.4 Fold change
same,Ins1 gene expression (Fold change relative to vehicle),INS-1 832/3 cells [1]; replicate 7,2.7 Fold change
same,Ins1 gene expression (Fold change relative to vehicle),INS-1 832/3 cells [1]; replicate 8,3.6 Fold change
same,Ins1 gene expression (Fold change relative to vehicle),INS-1 832/3 cells [1]; replicate 9,2.4 Fold change
same,Ins1 gene expression (Fold change relative to vehicle),INS-1 832/3 cells [1]; replicate 10,1.3 Fold change
same,Ins1 expression increase,"INS-1 832/3 cells [1]; 0.3 ng/ml, quantitative PCR",1.5 fold
same,stability in saline solution containing 3.5% BSA,"[2]; 37°C, 2 hr, ELISA",stable
same,% OCN from initial,"[2]; Bglap-/- mouse plasma, 37°C, 0 min, ELISA, replicate 1",100.0%
same,% OCN from initial,"[2]; Bglap-/- mouse plasma, 37°C, 0 min, ELISA, replicate 2",100.0%
same,% OCN from initial,"[2]; Bglap-/- mouse plasma, 37°C, 0 min, ELISA, replicate 3",100.0%
same,% OCN from initial,"[2]; Bglap-/- mouse plasma, 37°C, 15 min, ELISA, replicate 1",87.1%
same,% OCN from initial,"[2]; Bglap-/- mouse plasma, 37°C, 15 min, ELISA, replicate 2",96.1%
same,% OCN from initial,"[2]; Bglap-/- mouse plasma, 37°C, 15 min, ELISA, replicate 3",88.6%
same,% OCN from initial,"[2]; Bglap-/- mouse plasma, 37°C, 30 min, ELISA, replicate 1",81.2%
same,% OCN from initial,"[2]; Bglap-/- mouse plasma, 37°C, 30 min, ELISA, replicate 2",85.3%
same,% OCN from initial,"[2]; Bglap-/- mouse plasma, 37°C, 30 min, ELISA, replicate 3",89.8%
same,% OCN from initial,"[2]; Bglap-/- mouse plasma, 37°C, 60 min, ELISA, replicate 1",73.3%
same,% OCN from initial,"[2]; Bglap-/- mouse plasma, 37°C, 60 min, ELISA, replicate 2",71.4%
same,% OCN from initial,"[2]; Bglap-/- mouse plasma, 37°C, 60 min, ELISA, replicate 3",69.0%
same,% OCN from initial,"[2]; Bglap-/- mouse plasma, 37°C, 90 min, ELISA, replicate 1",67.3%
same,% OCN from initial,"[2]; Bglap-/- mouse plasma, 37°C, 90 min, ELISA, replicate 2",65.7%
same,% OCN from initial,"[2]; Bglap-/- mouse plasma, 37°C, 90 min, ELISA, replicate 3",66.9%
same,% OCN from initial,"[2]; Bglap-/- mouse plasma, 37°C, 120 min, ELISA, replicate 1",60.1%
same,% OCN from initial,"[2]; Bglap-/- mouse plasma, 37°C, 120 min, ELISA, replicate 2",56.6%
same,% OCN from initial,"[2]; Bglap-/- mouse plasma, 37°C, 120 min, ELISA, replicate 3",51.9%
same,% OCN from initial,"[2]; Bglap-/- mouse plasma, 37°C, 180 min, ELISA, replicate 1",51.9%
same,% OCN from initial,"[2]; Bglap-/- mouse plasma, 37°C, 180 min, ELISA, replicate 2",46.9%
same,% OCN from initial,"[2]; Bglap-/- mouse plasma, 37°C, 180 min, ELISA, replicate 3",43.8%
same,% OCN from initial,"[2]; Bglap-/- mouse plasma, 37°C, 300 min, ELISA, replicate 1",36.9%
same,% OCN from initial,"[2]; Bglap-/- mouse plasma, 37°C, 300 min, ELISA, replicate 2",36.3%
same,% OCN from initial,"[2]; Bglap-/- mouse plasma, 37°C, 300 min, ELISA, replicate 3",30.7%
same,% OCN from initial,"[2]; Figure 3D, Bglap-/- mouse plasma, 2hrs, 4°C, Not HI, ELISA, replicate 1",108.8%
same,% OCN from initial,"[2]; Figure 3D, Bglap-/- mouse plasma, 2hrs, 4°C, Not HI, ELISA, replicate 2",99.4%
same,% OCN from initial,"[2]; Figure 3D, Bglap-/- mouse plasma, 2hrs, 4°C, Not HI, ELISA, replicate 3",94.3%
same,% OCN from initial,"[2]; Figure 3D, Bglap-/- mouse plasma, 2hrs, 37°C, HI (heat-inactivated plasma), ELISA, replicate 1",108.8%
same,% OCN from initial,"[2]; Figure 3D, Bglap-/- mouse plasma, 2hrs, 37°C, HI (heat-inactivated plasma), ELISA, replicate 2",108.9%
same,% OCN from initial,"[2]; Figure 3D, Bglap-/- mouse plasma, 2hrs, 37°C, HI (heat-inactivated plasma), ELISA, replicate 3",82.4%
same,% OCN from initial,"[2]; Figure 3D, Bglap-/- mouse plasma, 2hrs, 37°C, Not HI, ELISA, replicate 1",34.6%
same,% OCN from initial,"[2]; Figure 3D, Bglap-/- mouse plasma, 2hrs, 37°C, Not HI, ELISA, replicate 2",23.3%
same,% OCN from initial,"[2]; Figure 3D, Bglap-/- mouse plasma, 2hrs, 37°C, Not HI, ELISA, replicate 3",37.9%
same,% OCN from initial,"[2]; Figure 3D, Bglap-/- mouse plasma, T0, ELISA, replicate 1",101.3%
same,% OCN from initial,"[2]; Figure 3D, Bglap-/- mouse plasma, T0, ELISA, replicate 2",100.0%
same,% OCN from initial,"[2]; Figure 3D, Bglap-/- mouse plasma, T0, ELISA, replicate 3",98.7%
same,% OCN from initial,"[2]; Figure 3 supplement 3A, 3.5% BSA in saline solution, 2 hours at 37 °C, replicate 1",108.8%
same,% OCN from initial,"[2]; Figure 3 supplement 3A, 3.5% BSA in saline solution, 2 hours at 37 °C, replicate 2",110.0%
same,% OCN from initial,"[2]; Figure 3 supplement 3A, 3.5% BSA in saline solution, 2 hours at 37 °C, replicate 3",106.2%
same,% OCN from initial,"[2]; Figure 3 supplement 3A, Bglap-/- mouse plasma, 4°C, T=2hours, replicate 1",94.9%
same,% OCN from initial,"[2]; Figure 3 supplement 3A, Bglap-/- mouse plasma, 4°C, T=2hours, replicate 2",99.7%
same,% OCN from initial,"[2]; Figure 3 supplement 3A, Bglap-/- mouse plasma, 4°C, T=2hours, replicate 3",100.1%
same,% OCN from initial,"[2]; Figure 3 supplement 3A, Bglap-/- mouse plasma, 2 hours at 37 °C, Pepstatin A (10uM), replicate 1",52.2%
same,% OCN from initial,"[2]; Figure 3 supplement 3A, Bglap-/- mouse plasma, 2 hours at 37 °C, Pepstatin A (10uM), replicate 2",57.4%
same,% OCN from initial,"[2]; Figure 3 supplement 3A, Bglap-/- mouse plasma, 2 hours at 37 °C, Pepstatin A (10uM), replicate 3",69.1%
same,% OCN from initial,"[2]; Figure 3 supplement 3A, Bglap-/- mouse plasma, 2 hours at 37 °C, RVKR (50uM), replicate 1",56.2%
same,% OCN from initial,"[2]; Figure 3 supplement 3A, Bglap-/- mouse plasma, 2 hours at 37 °C, RVKR (50uM), replicate 2",66.8%
same,% OCN from initial,"[2]; Figure 3 supplement 3A, Bglap-/- mouse plasma, 2 hours at 37 °C, RVKR (50uM), replicate 3",78.0%
same,% OCN from initial,"[2]; Figure 3 supplement 3A, Bglap-/- mouse plasma, 2 hours at 37 °C, vehicle (V), replicate 1",48.4%
same,% OCN from initial,"[2]; Figure 3 supplement 3A, Bglap-/- mouse plasma, 2 hours at 37 °C, vehicle (V), replicate 2",65.6%
same,% OCN from initial,"[2]; Figure 3 supplement 3A, Bglap-/- mouse plasma, 2 hours at 37 °C, vehicle (V), replicate 3",67.2%
same,% OCN from initial,"[2]; Figure 3 supplement 3A, Bglap-/- mouse plasma, T0, replicate 1",107.3%
same,% OCN from initial,"[2]; Figure 3 supplement 3A, Bglap-/- mouse plasma, T0, replicate 2",96.2%
same,% OCN from initial,"[2]; Figure 3 supplement 3A, Bglap-/- mouse plasma, T0, replicate 3",96.6%
same,% OCN from initial,"[2]; Figure 3 supplement 3B, Bglap-/- mouse plasma, 4°C, T=2hours, replicate 1",108.8%
same,% OCN from initial,"[2]; Figure 3 supplement 3B, Bglap-/- mouse plasma, 4°C, T=2hours, replicate 2",99.4%
same,% OCN from initial,"[2]; Figure 3 supplement 3B, Bglap-/- mouse plasma, 4°C, T=2hours, replicate 3",94.3%
same,% OCN from initial,"[2]; Figure 3 supplement 3B, Bglap-/- mouse plasma, 2 hours at 37 °C, 10 mM EDTA, replicate 1",37.4%
same,% OCN from initial,"[2]; Figure 3 supplement 3B, Bglap-/- mouse plasma, 2 hours at 37 °C, 10 mM EDTA, replicate 2",24.3%
same,% OCN from initial,"[2]; Figure 3 supplement 3B, Bglap-/- mouse plasma, 2 hours at 37 °C, 10 mM EDTA, replicate 3",37.4%
same,% OCN from initial,"[2]; Figure 3 supplement 3B, Bglap-/- mouse plasma, 2 hours at 37 °C, vehicle (V), replicate 1",34.6%
same,% OCN from initial,"[2]; Figure 3 supplement 3B, Bglap-/- mouse plasma, 2 hours at 37 °C, vehicle (V), replicate 2",23.3%
same,% OCN from initial,"[2]; Figure 3 supplement 3B, Bglap-/- mouse plasma, 2 hours at 37 °C, vehicle (V), replicate 3",37.9%
same,% OCN from initial,"[2]; Figure 3 supplement 3B, Bglap-/- mouse plasma, T0, replicate 1",101.3%
same,% OCN from initial,"[2]; Figure 3 supplement 3B, Bglap-/- mouse plasma, T0, replicate 2",100.0%
same,% OCN from initial,"[2]; Figure 3 supplement 3B, Bglap-/- mouse plasma, T0, replicate 3",98.7%
same,half-life in plasma ex vivo,"[2]; fresh Bglap-/- mouse plasma (lithium heparin), 37°C, total mouse OCN ELISA, n = 4 plasma",~ 120 min
same,OCN in stimulation media,INS-1 832/3 cells [3]; replicate 1,0.15 ng/mL
same,OCN in stimulation media,INS-1 832/3 cells [3]; replicate 2,0.18 ng/mL
same,OCN in stimulation media,INS-1 832/3 cells [3]; replicate 3,0.17 ng/mL
same,OCN in stimulation media,INS-1 832/3 cells [4]; replicate 1,0.037 ng/mL
same,OCN in stimulation media,INS-1 832/3 cells [4]; replicate 2,0.028 ng/mL
same,OCN in stimulation media,INS-1 832/3 cells [4]; replicate 3,0.03 ng/mL
